Data: US20120301468A1, “ANTI-MN ANTIBODIES AND METHODS OF USING SAME” (BAYER HEALTHCARE LLC, priority 2005, published 2012)

B1: 1e4: anti-MN monoclonal IgG1; CDRs SEQ ID NOS: 59, 65, 72, 107, 109, and 111 (antibody, V domains shown)
VH: ELVESGGGLVQPGGSLRLSCAASGFTFSNNAMNWVRQAPGKGLEWVSGISYDSSKTYYADSVKGRFTISRDNSKNTLYLQMNSLRAEDTAVYYCARLTYTGAYRWGQGTLVTVSS
VL: DIELTQPPSVSVAPGQTARISCSGDNLGSYYVHWYQQKPGQAPVLVIYDDNNRPSGIPERFSGSNSGNTATLTISGTQAEDEADYYCQSYDFGKVVFGGGTKLTVL
B2: 1E4 immunoconjugate (conjugate)
VH: QVELVESGGGLVQPGGSLRLSCAASGFTFSNNAMNWVRQAPGKGLEWVSGISYDSSKTYYADSVKGRFTISRDNSKNTLYLQMNSLRAEDTAVYYCARLTYTGAYRWGQGTLVTVSS
VL: B1 VL
B3: 1aa1 immunoconjugate (conjugate)
VH: QVELVQSGAEVKKPGASVKVSCKASGYTFTTNYMHWVRQAPGQGLEWMGIINPHNGSTSYAQKFQGRVTMTRDTSISTAYMELSSLRSEDTAVYYCARGRYFLMDVWGQGTLVTVSS
VL: DIQMTQSPSSLSASVGDRVTITCRASQNILSYLNWYQQKPGKAPKLLIYAASSLQSGVPSRFSGSGSGTDFTLTISSLQPEDFAVYYCQQYGSVPTFGQGTKVEIK
B4: 5aa3: anti-MN antibody; CDRs SEQ ID NOS: 81, 83, 85, 104, 105, and 106 (antibody, V domains shown)
VH: QVELVQSGAEVKKPGESLKISCKGSGYSFTGYISWVRQAPGKGLEWMGIIYPGDSYTNYSPSFQGQVTISADKSISTAYLQWSSLKASDTAMYYCARYSGPNWDVMDSWGQGTLVTVSS
VL: DIVLTQPPSVSGAPGQRVTISCSGSSSNIGSYYVNWYQQLPGTAPKLLIYADDKRPSGVPDRFSGSKSGTSASLAITGLQSEDEADYYCQSYDSTKDDSVFGGGTKLTVL

Columns and labels:
[1] = tested on: adhesion of MaTu cells to MN-coated wells; assay: Cell adhesion assay; assay type: cell-based, human; conditions: 100 μg antibody; 5000 MaTu cells
Description: Fifty (50) μL of a 1 μg/mL solution of purified MN in PBS was adsorbed onto a non-treated 96-well plate overnight at 4° C. The solution was removed, and the wells rinsed 3× with PBS. The wells were blocked for 1 hour with 200 μL 50% FBS in RPMI1640 media. The wells were then treated with 100 μg 1e4 anti-MN antibody in 1% BSA in PBS, control IgG in 1% BSA in PBS or 1% BSA in PBS. After washing with PBS, 5000 MaTu cells (MN+ cells) were added to the wells and the plate incubated overnight at 37° C. at 5% CO2. The ability of anti-MN antibodies to block adhesion of MaTu cells to MN-coated wells was assessed after washing with PBS.

[2] = tested on: MaTu human mammary carcinoma xenograft; conditions: MaTu xenograft; 30 mg/kg immunoconjugate; i.v. Q4Dx3
Description: Anti-MN antibodies were conjugated to cytotoxic small molecules using protocols that are known in the art (e.g., Liu, et al., Proc. Natl. Acad. Sci. 93:8618-8623, 1996). Human mammary xenograft, MaTu cells were maintained as adherent cultures in RPMI supplemented with 10% FBS. Ncr nude mice (8-12 weeks of age) were inoculated subcutaneously in the right flank with 5×10^6 cells in 0.1 mL of 80% matrigel/20% HBSS. When tumors reached an average size of ˜180 mg (6 days), treatment was initiated. Monoclonal antibodies conjugated to cytotoxic small molecules were administered i.v. once every four days (Q4Dx3) at a dose of 10 mg/kg. […] The length and width of each tumor was measured by using an electronic caliper 2-3 times per week and tumor weights (mg) were calculated based on the formula of [length (mm)×width (mm)^2]/2. […] Tumor growth inhibition (TGI) was calculated as 1−T/C×100, where T=final tumor weights from a treated group, and C=final tumor weights from the control group.
The in vivo anti-tumor effect of 3ee9/MMAE was examined in 6 different human xenograft tumor models. […] The human tumor xenograft models evaluated included the MaTu human mammary carcinoma model, the HT-29 and Colo-205 human colo-rectal carcinoma (CRC) models, PC3MM2 prostate carcinoma model, the HCT-15 multi-drug resistant (P-gp) CRC model, and the MiaPaCa2 human pancreatic model. […]

MN-negative DLD cells = assay: FACS cell binding, DLD cells; assay type: cell-based
Description: (§1) Cells may be assayed for MN expression as a diagnostic tool. Adherent MN-expressing PC-3 mm2 cells and non-MN expressing DLD1 cells were detached from their flasks with 1:10 trypsin/Versene in PBS solution for 5 to 10 minutes. Cells were spun down (1000 rpm, 5 minutes), washed once with ice cold RPMI 10% FBS, and resuspended in ice-cold staining buffer (Ca^+ Mg^+-free PBS, 2% BSA, and 0.05% sodium azide) at 6×10^6 cells/ml. Primary antibody, human anti-MN IgG1, or control human IgG1 antibody at 25 μg/mL were incubated with 6×10^5 cells on ice for 1 hour. The unbound antibody was washed from the cells with the ice-cold staining buffer. The cells were fixed with 2% formaldehyde in PBS for 10 minutes, then washed twice with staining buffer. The cell pellet was resuspended in 100 μl ice cold staining buffer containing anti-human Alexa fluor 488 secondary antibody (final conc. 1:200, Molecular Probes/Invitrogen, Carlsbad, Calif.), and incubated on ice for 1 hour. The unbound antibody was washed from the cells two times with flow buffer (PBS containing 2% BSA), and the cells were resuspended in 1 mL flow buffer. FACS analysis of the resuspended cells was performed on a […] FACS Caliber instrument.
The MN antibody G250, a humanized IgG1 antibody, (Wilex) was used as a reference throughout the in vitro studies.

MN+ cells (MaTu) = assay: In vitro cytotoxicity, MaTu
MN+ (PC3 mm2) cells = assay: FACS cell binding, PC3 mm2 cells; assay type: cell-based, human; conditions: MN+ cells (PC3 mm2, FIGS. 10b, 10c)
Description: as §1

[3] = tested on: MN-expressing cells (PC3 mm2); assay: Antibody internalization (Cellomics), PC3 mm2; assay type: cell-based, human
MN-negative cells (DLD1) = assay: Antibody internalization (Cellomics), DLD1; assay type: cell-based
[4] = tested on: MN-expressing PC3 mm2 cells; assay: In vitro cytotoxicity, PC3 mm2
MN = MN (Homo sapiens, UniProt Q16790); assay: Immunoprecipitation of biotinylated cell surface proteins; assay type: binding; parameters: incubated with cell lysates of MN+ (Pc3 mm2) and MN− (DLD-1) cell lines that had been selectively labeled with biotin; endogenous in cells; host or cells: PC-3 mm2 (MN+); DLD-1 as the MN- control; conditions: biotin-labeled lysates of MN+ (Pc3 mm2) and MN− (DLD-1) cell lines
Description: To further explore specificity, various candidate antibodies including the antibody portion of 3ee9/MMAE (3ee9) and the reference antibody G250 were incubated with cell lysates of MN+ (Pc3 mm2) and MN− (DLD-1) cell lines that had been selectively labeled with biotin. Complexes between the antibodies and cellular proteins were immuno-precipitated and the co-precipitated antigens visualized using immunoblots developed with enzyme-linked streptavidin.

Molecule | inhibition of cell adhesion [1] | anti-tumor effect [2] | cell binding by FACS (MN-negative DLD cells) | cytotoxicity (MN+ cells (MaTu)) | cell binding by FACS (MN+ (PC3 mm2) cells) | internalization [3] | internalization (MN-negative cells (DLD1)) | cytotoxicity [4] | co-immunoprecipitated proteins (specificity) (MN)
B1 | inhibits cell adhesion | no effect | – | – | – | – | – | – | –
B2 | – | significant anti-tumor effect | not to MN− cells | selectively cytotoxic for MN+ cells | exhibited binding to MN+ cells | internalized by MN+ cells (PC3 mm2) | not by MN− (DLD1) cells | selectively cytotoxic for MN+ cells | –
B3 | – | – | not to MN− cells | – | exhibited binding to MN+ cells | – | – | selectively cytotoxic for MN+ cells | –
B4 | – | – | – | – | – | – | – | – | co-immunoprecipitated several other proteins in addition to MN
